From PMC6173970 come the findings set out here.

For this test, the target named is F-actin (actin purified from chicken breast, polymerized and phalloidin-stabilized) (chicken) (UniProt P68139). Kind of test: co-sedimentation.

“6xHis-FLNaABD-Q170P (from UniProt P21333 1-278) (domain or fragment)” yielded a stoichiometry N of 1.
To “6xHis-FLNaABD-E254K (domain or fragment)” belongs 1.
To “6xHis-FLNaABD-wt (human filamin A actin-binding domain, wild type) (from UniProt P21333 1-278) (domain or fragment)” belongs 1; to “6xHis-FLNaABD-A128V (from UniProt P21333 1-278) (domain or fragment)”, 1.

Usually stoichiometry N stands for a count of units in the complex or per binding partner.
